Data taken from the DeepSol protein solubility set.

Assay: soluble on expression in E. coli; label from the status in PepcDB or PDB records

Soluble on expression in E. coli, not soluble:
MGSDKIHHHHHHMSSMSARNPFRPTFGVSPTVLAGRDSLLQSFKLGLAEGPGSPFRALLISGSRGMGKTVLLNEFEDAAASQGWITLRAYPDNSMVDGLVNSAIPEALQNLDGPQSKRMLSGVAIPGIATVTAIADPTKKDPTPTLISRLRELATRLQKHGSGILITLDELQSANVDLLHVLATAVQDLLRDDFDIALVAAGLPEGIDRLLQHEGTTFIRRAERILLNPVNHEDSVEMFLYTAAYGYRHMTSEAAELAAQISKGYPYSMQLTGSLAWARSTLDNSDTIQAEQVDAVRDEVVRRMGMQVHEPSLHQVPDGELTILYAIAQLSKNGEMVSTGDIAHLMGVKPNALSMQRKQLLSRGLVEVPKYGFLNFTLPYMREHLLNSPHHRPIT
MSLASVQDLGKVEQAAPAQKLTVTIALSLRDRDAAARYLQEVHTPSSPNYHKFLTPSEFRARYAPTEASLAKVAARLQAAGLSVKRIGSTLLQVSGPAATVQKAFGAEVHVFQNKSVVQGAAARYTAPVRASTPGIDLSDVQAVIGLDSRPHFRPHLRQLPSHLQASMDKSASAVTNGNAPGKWTVTDLARHYNITPLYNKGIHGQGATIGIVTLASFTPSDAFQYWSSIGLATDPNRLTVVDIDGGPGAPSDDGGSSETTLDVEQSGGIAPDAKIIVYQAPNTTQGFVDAFAKAIESNAADTLSVSWGEWEWFDQQSQAVNPVNGKSANVLQTYHDLFLQAALQGQTMFAASGDSGAYDVNRAAPLPQYNKVLSVDSPANQQFITAAGATTVPTTLTFHPNGKEMKIKIPTERAWGWDYLNGLCKALGKDPVACGTFPVGDGGGVSSFIGRPFYQNWLPGMQNSPAGQQLVDSSQNPPQVIATLPANFKGRNVPDISMNGDPETGYVVYYTSSKTGFSIQTNNGGTSFVAPQLAGITALLNQSLGGRLGLLNFSLYGLVATGHGYQGFGRHGAPLRDITAGNNWGYNAHRGYDQATGVGAPDVANLDAALRRYFWFEGHHHHHH
MSLVGDVYLGVGSASSEYWAAYIEGAKAVASSLGKDVNVIPSEFDGQKLLEQFGAVFAAGCEDCVVTVDPASNAFTKAMIERADTAGAKYVNLWNRPDEIHPWDTVPNTWIANISFDGVDSGYQNGMALCNALGGKGNIVALNGIPDNPPAKQRIAGLHKALQECPGLKLLDTQVGNWDQTQGQSITRAWLAKYGDELNGIFSANDGMALGAVAALREKGLVGKILVTGSDGSSDVIKLIEKGEMLSTMHIDGYVQGAYAVALAAAAVKGDIKMDELKQDQRDFFLSQTLVTKDNAASVLNSKEGHHHHHH
MGSDKIHHHHHHMNNINEKSTYHHGDLRETLLVVATEMLQENGIKEVSLRKLASRVGVSRTAPYHHFKDKNALLCGMAEKGFEQLHQINKCGYEDGELSIREHFYRFIHDYIQFAHNNPDLYELMFGRTIWKDKSSTQELRDSAYPCFQFQVAMTQEWQKKGLFNVDDNALRVSQVLWGTVHGIAKLFIDGIYTDNSKIDEICDYAVSMFLSNSKK
ERSPFPELLPFGEVSVRDSMLYLFVRPDMAGKEVFIPVNGEFLEEVSNLTNASPLNMDIRKTGVRIRMPASMPESFLVLALAFDRNDFVLAGRPQGYPLHMANSSRIYGHSCWDYYTGFKSITGMKWQAVSAPRAIIYTDMEAGKTLRLSVGREEREITLEGGKSEEVSISHDGLSWGKPYVRQVGGVFGMIPDNILRGDSIPLPLTKGWEEMPVGQVEKKPWGEISSCLLVQDIVSDREQTVACHLTFGNGIYVTLNGKQITAELIRETGLAHELTVCLPLQKGKNRLAVKFMNRFGEELIRGVSWPKSYTRYLLPIEGFSLEKVGKKGIPIELRPASVRYQGASASIPNIALL
GPGSMRSTAELSSPLSISLPCSLSAEPPHHTLPATTANIIALRRAADPSTFTHTHTNTARPPLPAPYFRQRDSSWCSHASPHAHRHTHTYPSLSLPAPRFFFAHRYAAAALPRRLPAIMTHEFHSLFLPLAAEEQAVFADFFPTLVASSTSIQDGVAGEHSLQPTVSATLDTYSSACATSPHSPGECGSLPEVGRGAATDAQARCDAPLRSLVFAIGSARADAVIVVLRRGDVVLYGLDRLHTPPYEKCRIRPLPTTQQLMAARENARRYSNADGAASAGSWTDASCSGGVAGSRSVVNGGVEATCAALLPLHIGYCCRIPLSASFSSATPPAGGPRRGGGGGSRDERDEDVVYLRGIVGSSDGRVSLFSDTSYTLSFAAHDIPVAQVDAVLLPPCTLDRRVSTNASPTTSTRGFSSTGAGANTRTAPSGELTSPTSPQPQERLARATQRLGLVTSGNDGVVLLWRRLGDSMSPIVVVRPSTFSSRAAYAVYHPSALSALLSSWAPPSQREAAVDAELSCPPSCLLHAATSTSHTLRVRQLASISPKPTHKSLSSAARRESVEEAAPTSMSAALPGSWSATVTAIAAHDSVTLVAMGASLLSLVKLNPRSAARVWKAAESITQLVLIDSVALAVCARSGTVHVLTIHPGTGRVVRQRVYYSYKNRAIHHTSLHVASLLMTIVDVCGSTELVQLPTDVMLPCDVRLRRGEYTSGDAANVNLLASMAALRAKVCIEAIKGGSGGGVSGSVAANEAEVTGGSTSMYEANAALDQLNERLLLARYAVPEECDNFMGANVHVF
MHTDTTRENPQASAPQAADSSQDLAATAPGQLRVIKRNGTVVPYTDDKITVAITKAFLAVEGGTAAASSRIHDTVRRLTEQVTATFKRRMPSGGTIHIEEIQDQVELALMRAGEQKVARDYVIYREARAAERKNAGAASDVAQPHP
MGSDKIHHHHHHMNIAIFGAGSTGCYLAGQLCISELQVSLICRPAIKQKIIANNGITLTDYNGFKQTIMPQALITDINQESSIYGKFDVVFVTLKCHQVSSIANQLMAITHDNSSIIFMQNGLGSFDSIKDSLDHYSLLQGITPFNVLQLPNAVFHKGTEGVFTLQANPHTIAIQSALVNHGFGCDIEADFTPMIYGKLLLNLNNALNAVTDLPIKQQLSHYKNRRILAKAMKEWLAVCEAADIQLHQYTKVKPSWLPTILLLPNVLFTVLAKQMLDIDPKARSSMWEDIQAKRKTEVDYINGAVVSIGKKYGIKTPVNQAIVEQIKQLEQRH
MGSDKIHHHHHHMTTSSVRYPQRVRNELRFRELIVLRVERISAGFQRIVLGGEALDGFISLGFDDHTKVFFPEPGCRFTPPTVTEEGIIWGEGVRPVSRDYTPLYDEARRELALDFFIHDGGVASRWAMEAREGDTLTIGGPRGSLVVPEEYACQVYVCDESGMPALRRRLESLSRLPVRPAVTALVSIQDAAYRDYLAHLTDITVEYVVGGDEQAMQTRLSQLTIPESDYFIWITGEGKTVKRLSQCFEKGFDPHLVRAAAYWHRK
MAADPVFKEALQCIRCASCTNVCPVFQLVSGQVYGYIYNGGIGSVLTAFFNSLEDAVDPQSLCIGCRRCAEVCPAKINIPDLVLKLRERVVTKQGLEHHHHHH
MNEIKLKYDTQVSVVHYESLDSRSFKSFSMPKWSKLVNKLSVPIEANYKYARGVAVYGDIKDNTNDHGEIIKKHRNDKNVIYRNVIVLDYDEINDVKQLHDAISSVLSSVAWYWHTSFSHTTEQARIRLYIPLNERISADDYRKYTKVLANKIGHKVDEGSYQPSRCFALPVIQKGHIFIKRVNDCPIMDVDMLEQWSKEYKQSNGSPNIKGYTRRDSAYWRDIAFGVSEGERNSTLASITGYLLRRYVDPNLVYGLVSAWASVCKPPINQSEVNNTFKSILKKDSKNS
MSNVAKSYKSSDPVIAYCSEHTTIQSPLQAELLKETLDNAPMSMMLGAPEVLTFGQNFIRSFGGRRVIDVGTYTGASALAWALAVPDDGEVFTFDIDHTNYKKFGVPIISKCEKTFKKIRAIEGSALDGLDKLIADGQSGTFDFAFIDADKVNYSNYYDRAVTLLRKGGVIFVDNSLWNGSVCDPARRTEPSTVAIHQANDKIFKDDRTYSALINLGDGTHIAFKK
MGSDKIHHHHHHMPRTILKDEHWTRLKPILLELNIYDKGNLRNTVEGVLYRMRVGCPWRDLPEHFGKPNTVYKAYQRWFRSNKLIALFALLIKDSDCEWVFIDGTHIKAHQHSSIGHENMQGISKSVAGRATKIHLAVDAHGNPITFILSDGTTHDVKVAPDLIDKDLSDTDILCADKGYDSDALRTHIKQAGCFNNIPRRRNTKSTNNHMDWHLYKTRHLVENAFAKLKHYRAVATRFDKLKQSYENTVALACAYLWLKL

Soluble on expression in E. coli, soluble:
MKKLYGVIGNPIGHSMSPDIHNASLKDLGLDGHYHAFKVEENDLEDAVKGIRALGVQGINVTVPHKVSIMDYLDHIDESAKVLGAVNTVRREGDKLVGYNTDGEGFVKSLMKVLDKPISELSFLMIGAGGAARAIFTTFVRNTPKKFDICNRTLEKAKRLTEATPSFHNKEVLSIKEAEERLEQYDVIIHTTSVGMYPNVDDVPLSLQRAASSAVVCDIVYNPIQTALLKEASQKGLKTLDGVGMFVEQAALSFQLWTGQEPNIEKMRSIVIGKLGGTECLEHHHHHH
MSTFKPLKTLTSRRQVLKAGLAALTLSGMSQAIAKDELLKTSNGHSKPKAKKSGGKRVVVLDPGHGGIDTGAIGRNGSKEKHVVLAIAKNVRSILRNHGIDARLTRSGDTFIPLYDRVEIAHKHGADLFMSIHADGFTNPKAAGASVFALSNRGASSAMAKYLSERENRADEVAGKKATDKDHLLQQVLFDLVQTDTIKNSLTLGSHILKKIKPVHKLHSRNTEQAAFVVLKSPSVPSVLVETSFITNPEEERLLGTAAFRQKIATAIAEGVISYFHWFDNQKAHSKKR
MFAMTSSAQSPLQQLGGTVVLAGAGKMGGALLTGWLAQGLDGGDVVVIEPHPTEEIAALSARGVRLNASAGDVGAVSTLVVAVKPQMFAEAAAALRGYVGPSTLVVSIMAGKPIAALSEQLGGHVVRAMPNTPAAIGRGITVAVAAGNVTAAQRGIADALLRATGGVEWVDDEALIDAVTAVSGSGPAYVFLLAEELARAGVEAGLPEGLAMTLARATVAGSGELLHRSDLDAATLRKNVTSPGGTTAAALEVLMANDGFRPLLTRAVAAATKRSKELAKAAALEHHHHHH
MEIERRLVLEVVRVTEQAALAASRFAGKGDKEAVDEAGTQAMRRVLNELPIRGTVVIGEGEMDEAPMLYIGEVLGQGGLEVDIAVDPVEGTTTVAKGLPNAVTVIALSEKGGLFHAPDMYMEKLIVPPSAVGLVDLTWPVSVNLRALALALQRSVEDLVVVVLEPPRHERLIREIRKAGAPVKLISDGDVIAALAAAIRGTGVHAVMGIGGAPEGVLTAAALKCLGGEIQARFVPQNEEERERLKAMGGDEHRIYKTEDLAPGKEIVFAATGITDGDILEGVRFFGGGARTHSIVMGHATRVVRFIDSIHLFETGARVTIRV
GMSMPNHPNLTTADAKKILNKFNCLDIAPILKPSEKESVRRALILITKLSDYQILGICADTADEGLLAMKTYSHALGYEVPIDLPVVEGPVYIKLNGKNGLCYLDSYAGHHRGVLVSCQSYYEGGINEMYGHLPLDLFV
SNAERRLCAILAADMAGYSRLMERNETDVLNRQKLYRRELIDPAIAQAGGQIVKTTGDGMLARFDTAQAALRCALEIQQAMQQREEDTPRKERIQYRIGINIGDIVLEDGDIFGDAVNVAARLEAISEPGAICVSDIVHQITQDRVSEPFTDLGLQKVKNITRPIRVWQWVPDADRDQSHDPQPSHVQH
MTTSALPRQAFGEMADTVILLEKATTTPICEGMNRLLASFQALYLQYQKHHFVVEGAEFYPLHQFFQDCYEQVQDHVHALGERLNGLGGVPVAGFQQLAALCCFTPEPEGAFNCRQMLSNDLQAEQAIIGVLRQQATQAESLGDRATAYLYDQILLKTEERAYHIGHFLANDSLKVLKVKLADGREHHHHHH
